Measured values as given in the Human Domainome abundance scans (Beltran et al. 2025).
± gives the uncertainty stated by the source.

B1: POU domain, class 3, transcription factor 4, residues 280 to 335; numbered along this chain, P49335 (parent)
chain: KKRTSIEVSVKGVLETHFLKCPKPAAQEISSLADSLQLEKEVVRVWFCNRRQKEKR
B2: Tesmin, residues 368 to 403; numbered along this chain, Q9Y4I5 (parent)
chain: KGCNCRRSGCLKNYCECYEAQIMCSSICKCIGCKNY

Variants of: B1
Assay: abundance fitness (aPCA) (normalised: wild type 0, dead -1); higher = more abundant; growth selection in yeast, the domain comes from the species named
Conditions: Homo sapiens

Abundance fitness: each site, then its substitutions
T4: H -0.925 ± 0.36 | R -0.419 ± 0.11 | P -0.178 ± 0.15 | G -0.189 ± 0.12 | L -0.021 ± 0.11 | A -0.145 ± 0.16 | W -0.486 ± 0.17 | S 0.213 ± 0.13 | F -0.26 ± 0.25 | M 0.108 ± 0.14 | K 0.011 ± 0.17 | C -0.249 ± 0.18 | E 0.034 ± 0.24 | I 0.067 ± 0.3 | D 0.34 ± 0.19 | Y -0.248 ± 0.22
R3: V -0.15 ± 0.13 | A -0.162 ± 0.14 | L 0.306 ± 0.12 | I 0.104 ± 0.17 | P 0.122 ± 0.16 | H -0.277 ± 0.31 | K 0.03 ± 0.33 | T 0.205 ± 0.14 | M 0.011 ± 0.23 | N 0.033 ± 0.24 | Y 0.069 ± 0.18 | C 0.174 ± 0.14 | S 0.261 ± 0.12 | G 0.077 ± 0.1 | W -0.706 ± 0.22 | F -0.226 ± 0.19 | Q -0.354 ± 0.21
S9: D 0.539 ± 0.28 | C -0.017 ± 0.27 | E 0.443 ± 0.27 | G 0.172 ± 0.2 | H 0.277 ± 0.45 | F -0.348 ± 0.28 | A -0.056 ± 0.19
E7: K 0.271 ± 0.15 | Y -0.285 ± 0.099 | L -0.163 ± 0.087 | V -0.362 ± 0.12 | S 0.528 ± 0.083 | R -0.093 ± 0.095 | T 0.526 ± 0.087 | I -0.357 ± 0.11 | D 0.327 ± 0.14 | G 0.381 ± 0.12 | F -0.513 ± 0.12 | W -0.014 ± 0.26 | M -0.191 ± 0.17 | H 0.105 ± 0.089 | A -0.082 ± 0.11 | Q 0.013 ± 0.14 | P 0.607 ± 0.084
I6: T -0.201 ± 0.096 | F -0.397 ± 0.099 | P -0.169 ± 0.091 | C -0.626 ± 0.13 | L 0.018 ± 0.083 | H -0.128 ± 0.097 | R -0.292 ± 0.12 | G -0.197 ± 0.12 | W -0.244 ± 0.23 | V -0.215 ± 0.093 | Q -0.123 ± 0.15 | Y -0.613 ± 0.12 | E -0.303 ± 0.2 | A -0.437 ± 0.12 | D -0.249 ± 0.12 | N -0.249 ± 0.095 | S -0.152 ± 0.086
K1: S -0.132 ± 0.24 | M -0.03 ± 0.27 | G -0.243 ± 0.4 | E -0.049 ± 0.3 | W 0.033 ± 0.42 | R -0.312 ± 0.2 | D -0.185 ± 0.49
S5: A 0.11 ± 0.13 | K 0.226 ± 0.27 | D 0.405 ± 0.26 | L -0.045 ± 0.14 | E 0.565 ± 0.17 | V 0.275 ± 0.12 | M 0.289 ± 0.22 | W -0.162 ± 0.14 | Q 0.268 ± 0.18 | P -0.158 ± 0.19 | H -0.187 ± 0.37 | C 0.2 ± 0.16 | T 0.217 ± 0.15 | I -0.107 ± 0.2 | F -0.155 ± 0.21 | G 0.27 ± 0.12 | N 0.216 ± 0.24
V8: E 0.623 ± 0.14 | S 0.546 ± 0.14 | H 0.07 ± 0.28 | L 0.293 ± 0.12 | A 0.354 ± 0.14 | Q 0.405 ± 0.2 | T 0.307 ± 0.21 | P 0.736 ± 0.24 | N 1.06 ± 0.44 | G 0.49 ± 0.11 | M 0.527 ± 0.22 | C -0.326 ± 0.23 | R 0.362 ± 0.12 | W -0.045 ± 0.16 | K 0.842 ± 0.22 | D 0.006 ± 0.31 | I 0.04 ± 0.14 | Y 0.231 ± 0.4
K2: R -0.225 ± 0.17 | E -0.526 ± 0.28 | V -0.124 ± 0.15 | A -0.433 ± 0.21 | C -0.8 ± 0.31 | Y -0.159 ± 0.27 | L -0.093 ± 0.15 | Q -0.637 ± 0.25 | D -0.342 ± 0.26 | T -0.277 ± 0.2 | M -0.201 ± 0.24 | N -0.058 ± 0.35 | S -0.161 ± 0.14 | P -0.559 ± 0.27 | H -0.258 ± 0.23

Variants of: B2
Assay: as above
Conditions: Homo sapiens

Abundance fitness, by site and new letter:
C28: M -0.411 ± 0.11 | A -0.248 ± 0.082 | E -0.157 ± 0.08 | S -0.169 ± 0.082 | G -0.219 ± 0.068 | P -0.195 ± 0.1 | R -0.575 ± 0.07 | W -0.7 ± 0.091 | V -0.42 ± 0.072 | D -0.3 ± 0.14 | K -0.377 ± 0.23 | T -0.14 ± 0.1 | Q -0.564 ± 0.14 | L -0.738 ± 0.12 | Y -0.973 ± 0.2
N35: V -0.362 ± 0.09 | E 0.11 ± 0.09 | C -0.384 ± 0.3 | R -0.019 ± 0.077 | D 0.18 ± 0.12 | F -0.614 ± 0.34 | T -0.167 ± 0.11 | P -0.055 ± 0.094 | W -0.233 ± 0.1 | L -0.861 ± 0.22 | A 0.141 ± 0.079 | S -0.023 ± 0.093 | G 0.211 ± 0.074 | K -0.44 ± 0.16 | Q 0.114 ± 0.11 | Y -0.64 ± 0.36
I27: Y -0.431 ± 0.14 | T 0.159 ± 0.099 | S 0.009 ± 0.076 | C -1.72 ± 0.24 | K 0.153 ± 0.091 | D 0.119 ± 0.14 | V 0.112 ± 0.085 | L -0.089 ± 0.086 | W -0.703 ± 0.096 | P 0.118 ± 0.096 | N 0.04 ± 0.098 | E 0.207 ± 0.082 | M -0.014 ± 0.13 | Q 0.176 ± 0.089 | R 0.085 ± 0.07 | A 0.162 ± 0.079
I31: G 0.15 ± 0.074 | C -0.02 ± 0.13 | Q 0.114 ± 0.1 | F -0.171 ± 0.18 | R 0.056 ± 0.067 | Y -0.322 ± 0.24 | S 0.147 ± 0.081 | M 0.081 ± 0.08 | V 0.125 ± 0.074 | W -0.099 ± 0.081 | P 0.047 ± 0.11 | K -0.108 ± 0.15 | N 0.083 ± 0.12 | L -0.021 ± 0.078 | E 0.311 ± 0.09 | A 0.309 ± 0.08 | T 0.211 ± 0.12
Y36: A 0.209 ± 0.11 | L -0.05 ± 0.1 | T 0.15 ± 0.18 | R 0.305 ± 0.086 | W 0.02 ± 0.11 | V 0.286 ± 0.1 | D 0.145 ± 0.13 | P 0.31 ± 0.095 | G 0.193 ± 0.1 | N 0.02 ± 0.14 | S -0.016 ± 0.14 | K -0.317 ± 0.26 | I 0.371 ± 0.13
S25: F -0.711 ± 0.14 | W -0.45 ± 0.086 | D -0.334 ± 0.17 | H -0.269 ± 0.12 | T -0.168 ± 0.11 | V -0.509 ± 0.11 | E -0.315 ± 0.13 | P -0.521 ± 0.15 | M -0.324 ± 0.12 | C -0.393 ± 0.11 | K -0.196 ± 0.11 | G 0.093 ± 0.072 | A -0.051 ± 0.1 | L -0.415 ± 0.081
C33: A -0.011 ± 0.076 | H -0.106 ± 0.17 | P -0.014 ± 0.084 | E 0.109 ± 0.076 | Q -0.362 ± 0.2 | K -0.123 ± 0.093 | R -0.245 ± 0.069 | M -0.147 ± 0.16 | D -0.064 ± 0.094 | V -0.055 ± 0.08 | T -0.14 ± 0.1 | G -0.025 ± 0.064 | W -0.449 ± 0.086 | L -0.232 ± 0.083 | S -0.121 ± 0.081
K29: W -0.186 ± 0.087 | G 0.24 ± 0.066 | P -0.091 ± 0.09 | E 0.238 ± 0.084 | S 0.051 ± 0.09 | T 0.024 ± 0.095 | Q 0.18 ± 0.11 | D 0.171 ± 0.087 | N 0.054 ± 0.22 | M -0.016 ± 0.1 | V 0.011 ± 0.072 | I -0.334 ± 0.34 | C -0.048 ± 0.15 | H 0.419 ± 0.26 | R 0.034 ± 0.069
C24: L -0.402 ± 0.089 | W -0.647 ± 0.082 | S -0.201 ± 0.097 | K 0.262 ± 0.28 | Q -0.072 ± 0.091 | T -0.294 ± 0.11 | P -0.21 ± 0.1 | M -0.378 ± 0.089 | V -0.421 ± 0.088 | D -0.107 ± 0.1 | G -0.008 ± 0.077 | A -0.15 ± 0.079 | E 0.051 ± 0.096
S26: G 0.089 ± 0.073 | R -0.241 ± 0.081 | P -0.624 ± 0.28 | M -0.384 ± 0.17 | W -1.91 ± 0.23 | N -0.079 ± 0.26 | K 0.032 ± 0.11 | D -0.101 ± 0.16 | V -0.159 ± 0.083 | T -0.095 ± 0.1 | C -0.98 ± 0.2 | E 0.228 ± 0.11 | L -0.559 ± 0.16 | A 0.05 ± 0.077 | F -0.651 ± 0.2 | Q 0.091 ± 0.1
C30: K -0.249 ± 0.12 | R -0.425 ± 0.072 | S -0.355 ± 0.08 | M -1.15 ± 0.25 | T -0.468 ± 0.12 | L -1 ± 0.11 | G -0.29 ± 0.066 | P -0.209 ± 0.095 | V -0.352 ± 0.087 | I -0.945 ± 0.2 | Q -0.196 ± 0.096 | A -0.252 ± 0.074 | H -0.498 ± 0.15 | E -0.226 ± 0.076
K34: S 0.073 ± 0.12 | A 0.185 ± 0.085 | W 0.003 ± 0.089 | N 0.06 ± 0.13 | C 0.064 ± 0.14 | Q -0.107 ± 0.14 | V 0.152 ± 0.078 | I -0.503 ± 0.41 | G 0.266 ± 0.068 | P 0.161 ± 0.21 | L 0.121 ± 0.083 | E 0.182 ± 0.14 | T 0.057 ± 0.1 | D 0.295 ± 0.15
G32: R -0.249 ± 0.082 | A -0.196 ± 0.084 | D -0.454 ± 0.13 | S -0.087 ± 0.14 | V -0.443 ± 0.094 | P -0.082 ± 0.12 | L -0.96 ± 0.13 | C -0.592 ± 0.23 | Q -0.414 ± 0.4 | T -0.655 ± 0.18 | W -0.349 ± 0.12 | E -0.033 ± 0.11
M23: G 0.127 ± 0.079 | L -0.462 ± 0.14 | H -0.198 ± 0.1 | Q -0.016 ± 0.15 | K -0.057 ± 0.12 | D 0.152 ± 0.1 | V -0.1 ± 0.089 | S -0.081 ± 0.12 | R -0.075 ± 0.092 | P -0.136 ± 0.14 | W -0.283 ± 0.14 | E 0.106 ± 0.088 | T -0.419 ± 0.15
